Data reported in patent US12728086B2, “Sunscreens derived from kynurenines and other UV-absorbing oxidized amino acids bound to peptides or polymers” (The Trustees of Princeton University, priority 2021, dated 2026).
Values joined by “and” are separate entries in the source; they are usually repeats but may differ in a detail not shown here. Equal entries are not always repeated.

Experiment: UV-visible spectroscopy of oxidized or kynurenine-modified amino acids, peptides, proteins and polymers
Format: physicochemical
Method: A prototype of oxidized amino acid-bearing peptides from enzymatic hydrolysate of pea protein was made. […] More particularly, peptides derived from enzymatic hydrolysis of pea protein (Sigma, 16974) were oxidized in 50 mM sodium phosphate buffer at room temperature using ozone bubbled through the solution (A2Z Ozone Inc., MP1000).
A prototype of kynurenine-bearing polymers was produced from enzymatic hydrolysis of soy protein generating starting peptide material. The soluble peptides were then oxidized in a semi-sealed container into which ozone was pumped.
This was done with bovine serum albumin buffer exchanged with into 50 mM sodium phosphate pH 6.5 to remove small molecule impurities.
The polymeric lysine (8.8 mg) was suspended in 200 microliters of 50 mM sodium bicarbonate pH 9.5 and treated with DL-kynurenine (Sigma 61250) (~1 mM) for 44 hours at 37° C. in the dark. […] Controls of poly-lysine with no added kynurenine and that of kynurenine without poly-lysine were run concurrently. […] Soy peptides were used similarly, though they also contain other potential nucleophilic residues besides lysine to which kynurenine monomers could be added, including cysteine and histidine. These soy peptides were generated from overnight incubation at 37° C. of soy protein powder (5 g/100 mL deionized water) using porcine pepsin (0.5 mg/mL) all brought to pH 2.0 using hydrochloric acid. After this incubation, insoluble material was removed via centrifugation, and the clarified solution was brought to pH 9.5 using sodium hydroxide. This soy peptide solution was added in two parts to one part 50 mM sodium bicarbonate pH 9.5. To 1 mL of soy peptide solution was added 0.2 mL DLkynurenine (final 1 mM), and this was incubated for 44 hours at 37° C. in the dark. To isolate peptides from free kynurenine to determine if kynurenine monomers were added by UV-visible spectroscopy, small molecules and even some small peptides were removed with size exclusion (Sephadex G-50, GE Healthcare).

[1] = after incubation with DL-kynurenine (44 hours, 37° C., pH 9.5) and size exclusion
[2] = after treatment with ozone, UV-visible spectroscopy

Row | Compound | region of increased absorbance [1] | wavelength of absorbance increase in the UVA [1] | region of increased absorbance [2]
1 | poly-L-lysine | 300-400 nm | around 360 nm | 
2 | NC(CC(=O)c1ccccc1NC=O)C(=O)O (centres unmarked) [N-formyl kynurenine] |  |  | 300-350 nm
3 | N[C@@H](Cc1c[nH]c2ccccc12)C(=O)O [L-tryptophan] |  |  | 300 to 400 nm and 300-400 nm
4 | bovine serum albumin: bovine serum albumin stirred under a stream of ozone for 8 hours |  |  | 300-350 nm
